Structures can show the parent of a compound that is named as a salt.
What was measured:
Bovine factor Xa = test: Determination of anti-factor Xa activity in buffer (microtiter plate method, AT-III mediated); assay type: biochemical; details: Kabi buffer, human AT-III
Source text: II. Determination of Anti-Factor Xa Activity in Buffer
(Microtiter Plate Method)
Anticoagulants can inhibit Xa directly or, like heparin, by potentiating the inhibitory activity of AT-III. Anti-Xa activity can be assessed by determination of the rate of hydrolysis of the chromogenic substrate S-2222 in the presence of AT-III. This assay is used to determine anti-Xa activity of heparinoid preparations in Kabi buffer.
Test medium: Kabi buffer.
Ref. compound: International standard heparin (11.4 anti-Xa U/mg).
Composition of the buffer: NaCl 10.17 g (174 mmol); edetate disodium dihydrate 3.26 g (9.6 mmol); tromethamine (Tris) 6.11 g (50.4 mmol); made up to 1 L with ultrapure H2O *. The pH of the solution is adjusted to 7.4 with hydrochloric acid (0.10 mol/L)
Bovine factor Xa (Kabi Diagnostica, Stockholm, Sweden) is dissolved in Kabi buffer to give a solution containing 1.5 U/mL (0.75 nKat/mL). • 3. S-2222 solution
S-2222 (Kabi Diagnostica) is dissolved in ultrapure H2O to give a solution containing 0.375 mg/mL (0.5 mmol/L). • 4. AT-III solution
Human AT-III (Kabi Diagnostica) is dissolved in Kabi buffer to give a solution containing 0.25 U/mL. A fresh solution has to be prepared daily. • 5. Standard solution of the calibration sample
Standard heparin is dissolved in Kabi buffer to give a standard solution containing approx. 0.25 anti-Xa U/mL.
Each preparation is dissolved in ultrapure H2O and diluted with Kabi buffer to the required concentrations in the range of 0.02-0.2 anti-Xa U/mL
Each test sample (0.05 mL) is pipetted into a well of a microtiter plate at RT. AT-III solution (0.05 mL) is added to each sample and the plate is shaken using a Vari-shaker.
An aliquot of Xa solution (0.05 mL) is pipetted into each well 10 min following addition of AT-III solution and the plate is shaken again. Exactly 2 min following addition of Xa solution, 0.1 mL S-2222 solution is pipetted into each well and the plate is shaken again. For all additions a 12-channel pipette is used.
The remaining amount of Xa catalyses the hydrolysis of S-2222, the rate of which is measured photometrically following incubation periods of 2 and 22 min respectively at RT. The absorbance of each sample is measured at 405 nm using a Reader Microelisa, model 310C (Organon Teknika, Oss, The Netherlands) and the increase in absorbance (ΔOD) is calculated. Each test sample is determined in duplicate. With every 10 samples, a blank (0.05 mL Kabi buffer) is included.
From an aliquot of the standard solution of the calibration sample a range of dilutions is made (dilution factor 1,3 for heparin samples). The resulting standard samples (approx. 15 samples) should contain between 0.01-0.25 anti-Xa U/mL. […]
For each sample the mean anti-Xa activity in U/mL is determined using the calibration curve. […]

[1] = Pharmacokinetics (half-life) in guinea pigs; details: 0.5 μmol/kg i.v., ex-vivo plasma anti-Xa activity, compared to reference GpIIb/IIIa antagonists (XVII, XIX, XX by LC-MS/MS)
Protocol: Guinea pigs (DH) were administered 0.5 μmol/kg (i.v.) of anticoagulant. The half-life of the pentasaccharide XXII, the “parent” of the oligosaccharide part of the conjugates, and conjugate VIII were indirectly assigned by ex-vivo determination of plasma anti-Xa activity at specific time-intervals as described above. The half-lives of the reference GPIIb/IIIa antagonists XVII, XIX and XX (see Scheme 10) were determined by measuring the plasma concentration at specific time-intervals using LC-MS/MS.

Compound: CO[C@H]1O[C@H](COS(=O)(=O)O)[C@@H](O[C@@H]2O[C@@H](C(=O)O)[C@@H](O[C@H]3O[C@H](COS(=O)(=O)O)[C@@H](O[C@@H]4O[C@H](C(=O)O)[C@@H](O[C@H]5O[C@H](COS(=O)(=O)O)[C@@H](OCCOCCOCCOCCNC(=O)COCCOCCOCCOCCNC(=O)[C@H](CC(=O)O)NC(=O)[C@@H]6CCCN(C(=O)CCC7CCNCC7)C6)[C@H](OC)[C@H]5OC)[C@H](OC)[C@H]4OC)[C@H](OS(=O)(=O)O)[C@H]3OS(=O)(=O)O)[C@H](OC)[C@H]2OC)[C@H](OC)[C@H]1OS(=O)(=O)O [Compound VIII, sodium salt]
- Anti-Xa activity (Bovine factor Xa; substrate S-2222, calibrated against standard heparin): 605 ± 43 U/mg
- Anti-Xa activity (Bovine factor Xa; substrate S-2222, per nmol (from U/mg and Mw)): 1.45 U/nmol
- half life [1]: significantly prolonged
